Data taken from PMC11024254, “The DmsABC S-oxide reductase is an essential component of a novel, hypochlorite-inducible system of extracellular stress defense in Haemophilus influenzae” (Frontiers in Microbiology, 2024).

What was measured:
[O-][n+]1cccnc1 = purified protein; conditions: purified enzyme, 0.2 mM methyl viologen, 0.3 mM dithionite, 20 mM sodium phosphate pH 6.8, 37°C
NC(=O)c1ccc[n+]([O-])c1 = assay: purified protein; conditions: purified enzyme, 0.2 mM methyl viologen, 0.3 mM dithionite, 20 mM sodium phosphate pH 6.8, 37°C

MtsZ (HiMtsZ) (Haemophilus influenzae Rd KW20)
Km ([O-][n+]1cccnc1): 35 ± 8 µM
kcat ([O-][n+]1cccnc1): 33.2 ± 2.7 s⁻¹
Km (NC(=O)c1ccc[n+]([O-])c1): 46 ± 8 µM
kcat (NC(=O)c1ccc[n+]([O-])c1): 93 ± 5 s⁻¹
